Reference: PMC5364462

Molecular target: Myr-GCN4-GFP
Assay: fluorescence correlation spectroscopy (FCS); GFP-tagged membrane control proteins in live cells, same instrument and illumination conditions; cell line not stated; median molecular brightness

Myr-GCN4-GFP
median molecular brightness: 746 cpsm
